Among the data in PMC8303762 are MTT proliferation of MCF-7 cells treated with recombinant human vimentin (0, 50, 100, 200 ng/mL), 72 h; value printed for 100 ng/mL values, retold here.

The target of the assay is insulin-like growth factor-1 receptor (IGF-1R) on MCF-7 cells (human (endogenous in MCF-7)) (UniProt P08069).
Sequence of UniProt P08069 (P08069 31-1367): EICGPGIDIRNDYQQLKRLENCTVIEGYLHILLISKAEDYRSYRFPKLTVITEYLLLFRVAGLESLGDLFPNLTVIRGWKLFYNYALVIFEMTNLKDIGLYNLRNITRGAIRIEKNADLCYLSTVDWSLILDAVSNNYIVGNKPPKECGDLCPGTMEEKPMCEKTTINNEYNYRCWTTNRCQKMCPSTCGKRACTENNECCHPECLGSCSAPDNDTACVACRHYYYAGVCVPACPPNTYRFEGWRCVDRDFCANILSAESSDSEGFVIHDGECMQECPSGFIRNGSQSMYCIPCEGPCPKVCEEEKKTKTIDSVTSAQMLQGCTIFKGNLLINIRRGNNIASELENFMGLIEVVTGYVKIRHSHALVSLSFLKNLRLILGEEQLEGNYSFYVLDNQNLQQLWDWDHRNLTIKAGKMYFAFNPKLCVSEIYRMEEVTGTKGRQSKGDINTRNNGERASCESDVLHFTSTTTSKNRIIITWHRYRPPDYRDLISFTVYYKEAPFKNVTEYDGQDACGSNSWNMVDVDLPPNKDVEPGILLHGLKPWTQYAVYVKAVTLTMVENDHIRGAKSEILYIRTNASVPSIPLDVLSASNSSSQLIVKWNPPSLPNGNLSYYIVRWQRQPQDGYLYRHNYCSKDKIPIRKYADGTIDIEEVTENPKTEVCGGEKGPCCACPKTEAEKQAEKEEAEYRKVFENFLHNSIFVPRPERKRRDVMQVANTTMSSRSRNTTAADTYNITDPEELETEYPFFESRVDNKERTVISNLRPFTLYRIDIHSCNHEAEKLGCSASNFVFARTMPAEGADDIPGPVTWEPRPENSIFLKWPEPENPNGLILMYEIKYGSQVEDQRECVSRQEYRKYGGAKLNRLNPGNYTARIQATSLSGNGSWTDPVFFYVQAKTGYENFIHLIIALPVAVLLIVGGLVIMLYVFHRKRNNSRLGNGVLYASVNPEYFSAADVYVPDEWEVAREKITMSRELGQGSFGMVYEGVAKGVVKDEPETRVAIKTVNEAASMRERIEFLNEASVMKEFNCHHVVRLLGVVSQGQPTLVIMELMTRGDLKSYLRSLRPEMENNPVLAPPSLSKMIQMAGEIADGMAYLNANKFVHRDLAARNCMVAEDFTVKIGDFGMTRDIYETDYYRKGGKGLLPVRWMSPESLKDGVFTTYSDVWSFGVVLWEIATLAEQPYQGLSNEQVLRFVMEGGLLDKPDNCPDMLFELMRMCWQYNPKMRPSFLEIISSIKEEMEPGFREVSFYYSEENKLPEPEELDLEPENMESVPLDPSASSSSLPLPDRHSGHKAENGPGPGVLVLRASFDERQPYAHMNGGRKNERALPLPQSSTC

Sequence of recombinant human vimentin (P08670 whole entry): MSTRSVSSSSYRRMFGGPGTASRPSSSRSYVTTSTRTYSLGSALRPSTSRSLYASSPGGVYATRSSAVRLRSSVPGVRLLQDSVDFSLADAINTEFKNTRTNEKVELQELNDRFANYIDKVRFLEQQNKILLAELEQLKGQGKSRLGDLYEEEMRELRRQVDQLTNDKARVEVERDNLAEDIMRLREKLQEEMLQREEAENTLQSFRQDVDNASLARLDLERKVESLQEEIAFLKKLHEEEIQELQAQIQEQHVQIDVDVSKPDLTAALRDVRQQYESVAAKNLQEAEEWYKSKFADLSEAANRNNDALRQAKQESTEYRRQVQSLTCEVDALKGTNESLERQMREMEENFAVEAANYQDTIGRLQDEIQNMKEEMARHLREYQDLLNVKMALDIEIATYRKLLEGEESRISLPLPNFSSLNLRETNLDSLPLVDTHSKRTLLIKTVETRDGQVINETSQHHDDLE

Consider “recombinant human vimentin (from UniProt P08670 1-466) (natural protein)”, for which the MTT proliferation of MCF-7 cells treated with recombinant human vimentin (0, 50, 100, 200 ng/mL), 72 h; value printed for 100 ng/mL is > 20%.
